From IntAct's records for PubMed 16229834

B1: PRKC apoptosis WT1 regulator protein (Rattus norvegicus (Rat)), Q62627 (parent)
chain: MATGGYRSSGSTTDFLEEWKAKREKMRAKQNPVGPGSSGGDPAAKSPAGPLAQTTAAGTSELNHGPAGAAAPAAPGPGALNCAHGSSALPRGAPGSRRPEDECPIAAGAAGAPASRGDEEEPDSAPEKGRSSGPSARKGKGQIEKRKLREKRRSTGVVNIPAAECLDEYEDDEAGQKERKREDAITQQNTIQNEAASLPDPGTSYLPQDPSRTVPGRYKSTISAPEEEILNRYPRTDRSGFSRHNRDTSAPANFASSSTLEKRIEDLEKEVLRERQENLRLTRLMQDKEEMIGKLKEEIDLLNRDLDDMEDENEQLKQENKTLLKVVGQLTR
partner: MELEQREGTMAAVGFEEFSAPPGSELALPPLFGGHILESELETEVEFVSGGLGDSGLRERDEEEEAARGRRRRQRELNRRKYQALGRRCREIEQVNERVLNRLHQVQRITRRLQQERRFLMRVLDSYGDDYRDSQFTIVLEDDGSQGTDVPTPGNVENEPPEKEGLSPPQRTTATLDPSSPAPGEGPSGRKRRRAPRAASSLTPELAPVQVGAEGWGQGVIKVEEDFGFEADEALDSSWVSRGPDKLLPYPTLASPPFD

Variants of: B1
Conditions: with tfpt_rat Tfpt

Row | effect of a mutation on the interaction | Variant
1 | disrupting interaction | MATGGYRSSGSTTDFLEEWKAKREKMRAKQNPVGPGSSGGDPAAKSPAGPLAQTTAAGTSELNHGPAGAAAPAAPGPGALNCAHGSSALPRGAPGSRRPEDECPIAAGAAGAPASRGDEEEPDSAPEKGRSSGPSARKGKGQIEKRKLREKRRSTGVVNIPAAECLDEYEDDEAGQKERKREDAITQQNTIQNEAASLPDPGTSYLPQDPSRTVPGRYKSTISAPEEEILNRYPRTDRSGFSRHNRDTSAPANFASSSTLEKRIEDLEKEVLRERQENLRLTRLMQDKEEMIGKAKEEIDLLNRDLDDMEDENEQAKQENKTLLKVVGQATR [L295A;L316A;L330A]
